Reference: article PMC12242765, “CDK-driven phosphorylation of TRAIP is essential for mitotic replisome disassembly and MiDAS” (Nucleic Acids Research, 2025)

B1: His6-SUMO-tagged X. laevis TRAIP-wt (enzyme, UniProt Q6NRV0 1-464, looked up)
chain: MPIRAYCTICSDFFDNARDVAAITCGHTFHQECLLQWFHSAPHRTCPQCRIQVSSRQIINKLFFDIGGEEETVLDAESLKNEVDRIKASLLVKEKEKRECQGLVDSLREMLDVRNVTIQSQQKELGDMEMLCSTLKKQIKFLDKQQSETKAAKDEARKLRNKLKTMESIEVLLQSQRSEVEEMIRDMGSGQAAVEQLAIYCVSLKKEYENLKEVRKSSAEMTEKLRKELFSSNHKAQKAELELTKVREELSASQKELHSADKEIMSLKKKVEFLQKTLTTPTASNEAISRLIFESPAPIGLERPKLRPPMMGNDINLDVTFDIDTPEHNTQKSVVAPFKKMKFDNKEHPLSSPTKNPLQESKGLMSWAGGRTGADEDDDLTLPSFIKNSLLHKKPVGSLLGLRQNTGAVRTGFDGLGGRTKFIQPSNLTEIRPLHQKMKRKKVSRPTACTSSLANQPRLEDFLK
notes: TRAIP ubiquitin ligase, Xenopus laevis, wild type; SUMO-TRAIP is said to be 65 kDa; also called His6-SUMO-TRAIP-wt; His-SUMO-TRAIP; source: E. coli Rosetta (DE3) pLysS, pCA528 vector, purified (Ni-NTA; Mono Q for the gel filtration); not shown: His6, N-terminal, kept; SUMO, N-terminal, kept
B2: phosphorylated His6-SUMO-TRAIP-wt (in vitro phosphorylated with CDK1/Cyclin B) (enzyme, X. laevis, UniProt Q6NRV0 1-464, looked up)
chain: MPIRAYCTICSDFFDNARDVAAITCGHTFHQECLLQWFHSAPHRTCPQCRIQVSSRQIINKLFFDIGGEEETVLDAESLKNEVDRIKASLLVKEKEKRECQGLVDSLREMLDVRNVTIQSQQKELGDMEMLCSTLKKQIKFLDKQQSETKAAKDEARKLRNKLKTMESIEVLLQSQRSEVEEMIRDMGSGQAAVEQLAIYCVSLKKEYENLKEVRKSSAEMTEKLRKELFSSNHKAQKAELELTKVREELSASQKELHSADKEIMSLKKKVEFLQKTLTTPTASNEAISRLIFESPAPIGLERPKLRPPMMGNDINLDVTFDIDTPEHNTQKSVVAPFKKMKFDNKEHPLSSPTKNPLQESKGLMSWAGGRTGADEDDDLTLPSFIKNSLLHKKPVGSLLGLRQNTGAVRTGFDGLGGRTKFIQPSNLTEIRPLHQKMKRKKVSRPTACTSSLANQPRLEDFLK
modifications: phosphorylated in vitro by CDK1/Cyclin B; mutation of T280, S295 and S352 to alanine (TRAIP-3A) abolishes this phosphorylation
notes: TRAIP ubiquitin ligase, Xenopus laevis, wild type, as m1; the sites phosphorylated in vitro were not mapped one by one; T325 is discussed as a possible fourth site; also called phosphorylated TRAIP-wt; phosphorylated TRAIP; source: E. coli Rosetta (DE3) pLysS, purified (Ni-NTA, Mono Q), then phosphorylated in vitro with CDK1/Cyclin B; not shown: His6, N-terminal, kept; SUMO, N-terminal, kept

Assays:
[1] = target: the molecule itself; test: SEC + other: glycerol gradient sedimentation; Superdex 200 Increase 3.2/300 (Stoke's radius 62.77 Å) and 20%-40% glycerol gradient in LFB1/100 (5.105 S), combined by the Siegel-Monty method; apparent molecular size; monomer to dimer
[2] = target: the molecule itself; test: SEC; Superdex 200 Increase 3.2/300, 20 μl/min; TRAIP-wt and CDK1/Cyclin B-phosphorylated TRAIP-wt loaded one at a time; fractions blotted with TRAIP antibodies

| Protein | stoichiometry N [1] | binding result [2] |
| --- | --- | --- |
| B1 | 2 |  |
| B2 |  | binds |
